Measurements as given in CN112279916A (DINGFU BIOTARGET CO LTD, dated 2021).

Target: T1, hIL13RA1-EGFP (细胞表面hIL13RA1, HEK293细胞) (human, UniProt P78552 22-427)
T1 construct: also called 人IL13RA1; not shown: enhanced green fluorescent protein EGFP, UniProt C5MKY7
T1 sequence (looked up): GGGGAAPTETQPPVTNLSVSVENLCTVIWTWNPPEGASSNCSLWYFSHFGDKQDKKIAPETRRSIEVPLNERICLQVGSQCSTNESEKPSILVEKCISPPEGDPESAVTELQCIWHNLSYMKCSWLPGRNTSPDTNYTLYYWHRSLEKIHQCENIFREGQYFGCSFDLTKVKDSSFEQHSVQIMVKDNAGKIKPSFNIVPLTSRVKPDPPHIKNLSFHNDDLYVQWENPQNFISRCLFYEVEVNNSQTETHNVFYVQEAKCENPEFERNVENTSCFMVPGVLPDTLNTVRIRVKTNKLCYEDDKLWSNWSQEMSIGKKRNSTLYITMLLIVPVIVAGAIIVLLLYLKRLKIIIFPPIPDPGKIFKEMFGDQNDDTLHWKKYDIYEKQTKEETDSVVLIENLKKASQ
Test: FACS on hIL13RA1-EGFP HEK293 cells, 2 μg antibody, secondary antibody anti-hIg-PE

binding result: binds
B1: anti-hIL13RA1 scFv抗体 (Fc fusion)
scFv: QVQLQQSGPGLVKPSQTLLITCAISGDSVSSNSAAWNWIRQSPSGSLEWLGRTYYRSKWYSHYAVSVTGRMTINSDSSKNQFSLQLDSVTPEDMAIYYCAREEVAGRGSFDFWGQGTLVTVSSGILGSGGGGSGGGGSGGGGSDIQLTQSPSFLSASVGDRVTITCRASQSISKNLVWYQQKPGKAPKLLIYSASTLQSGVPSRFSGSGSGTDFTLTISSLQPEDCALYFCQQAHSFPVTFGQGTRLEIK
notes: also called anti-IL13RA1 35#; IL13RA1抗体; not shown: human IgG1-Fc domain, UniProt P01857 residues 104-330
